The results in this text go back to US20200308242A1.

In assay [1] the target is T1, IFNα receptor on GloResponse ISRE-luc2P/HEK293 cells (UniProt P17181).
T1 sequence (looked up) 1: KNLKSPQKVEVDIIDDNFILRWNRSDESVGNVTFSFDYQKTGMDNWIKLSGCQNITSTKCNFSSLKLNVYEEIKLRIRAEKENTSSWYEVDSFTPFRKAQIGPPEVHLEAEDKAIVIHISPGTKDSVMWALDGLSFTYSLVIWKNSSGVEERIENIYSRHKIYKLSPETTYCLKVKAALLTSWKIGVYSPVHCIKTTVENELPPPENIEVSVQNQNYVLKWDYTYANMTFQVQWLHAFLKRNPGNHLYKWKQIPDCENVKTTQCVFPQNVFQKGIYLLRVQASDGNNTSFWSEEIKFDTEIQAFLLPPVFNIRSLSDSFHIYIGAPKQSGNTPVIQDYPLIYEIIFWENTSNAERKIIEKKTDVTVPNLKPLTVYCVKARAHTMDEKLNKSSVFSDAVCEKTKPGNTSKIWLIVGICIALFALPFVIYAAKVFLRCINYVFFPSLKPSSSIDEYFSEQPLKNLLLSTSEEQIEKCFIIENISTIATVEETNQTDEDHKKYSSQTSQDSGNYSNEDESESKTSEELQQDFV
T1 sequence (looked up) 2: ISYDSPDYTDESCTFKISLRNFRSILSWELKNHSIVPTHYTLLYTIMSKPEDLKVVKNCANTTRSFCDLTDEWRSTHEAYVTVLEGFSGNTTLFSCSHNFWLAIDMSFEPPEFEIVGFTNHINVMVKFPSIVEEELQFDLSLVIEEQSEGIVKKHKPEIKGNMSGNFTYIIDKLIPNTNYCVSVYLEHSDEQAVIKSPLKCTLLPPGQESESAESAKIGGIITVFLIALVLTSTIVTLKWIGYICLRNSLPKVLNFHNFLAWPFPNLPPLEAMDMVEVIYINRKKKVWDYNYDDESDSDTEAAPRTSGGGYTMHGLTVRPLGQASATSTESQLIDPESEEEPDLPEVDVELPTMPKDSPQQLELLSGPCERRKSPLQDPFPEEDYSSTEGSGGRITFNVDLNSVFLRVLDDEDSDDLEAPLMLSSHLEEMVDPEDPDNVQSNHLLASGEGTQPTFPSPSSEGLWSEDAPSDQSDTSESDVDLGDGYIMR
Kind of assay: cell-based or functional assay.

Assay [2] has as its target IL-2Rβ/IL-2Rγ receptor subunits on PathHunter U2OS IL-2Rβ/IL-2Rγ/(IL-2Rα) cells (UniProt P14784). The experiment in a line: cell-based or functional assay.

In assay [1], “H16/L16-PVGLIG-hIFNα2a cleaved by MMP-9 (released hIFNα2a) (from UniProt P01563 24-188) (ligand)” had an EC50, ISRE-luc2P/HEK293 luciferase reporter, +MMP9, no pre incubation of the cells with H16/L16 antibody of 0.02 nM and an EC50, ISRE-luc2P/HEK293 luciferase reporter, +MMP9, pre incubation of the cells with H16/L16 antibody (to saturate IGF1-R binding sites) of 0.02 nM.
On to “H16/L16-PVGLIG-hIL-15 cleaved by MMP-9 (released hIL-15) (from UniProt P40933 49-162) (ligand)”, for which the EC50 of IL-15-induced IL-2Rβ/IL-2Rγ dimerisation (PathHunter U2OS chemiluminescence), +MMP-9 in assay [2] worked out at 2.84 nM.
“NHS76-PVGLIG-hIFNα2a (from UniProt P01563 23-188)” registered an EC50, ISRE-luc2P/HEK293 luciferase reporter, -MMP9 in assay [1] of 5.33 nM.
In assay [1], “NHS76-PVGLIG-hIFNα2a cleaved by MMP-9 (released hIFNα2a) (from UniProt P01563 24-188) (ligand)” registered an EC50, ISRE-luc2P/HEK293 luciferase reporter, +MMP9 of 0.03 nM.
Substance “NHS76-PVGLIG-hIL-15 cleaved by MMP-9 (released hIL-15) (from UniProt P40933 49-162) (ligand)” yielded an EC50 of IL-15-induced IL-2Rβ/IL-2Rγ dimerisation (PathHunter U2OS chemiluminescence), +MMP-9 in assay [2] of 8.84 nM.
In assay [1], “Recombinant human IFNα2a (from UniProt P01563 24-188) (ligand)” gave an EC50, ISRE-luc2P/HEK293 luciferase reporter, +MMP9 of 0.05 nM and an EC50, ISRE-luc2P/HEK293 luciferase reporter, -MMP9 of 0.08 nM.
On to “Recombinant human IL-15 (from UniProt P40933 49-162) (ligand)”, for which, in assay [2], the EC50 of IL-15-induced IL-2Rβ/IL-2Rγ dimerisation (PathHunter U2OS chemiluminescence), +MMP-9 is 0.71 nM and the EC50 of IL-15-induced IL-2Rβ/IL-2Rγ dimerisation (PathHunter U2OS chemiluminescence), -MMP-9 is 0.72 nM.
“c9G4-PVGLIG-hIFNα2a cleaved by MMP-9 (released hIFNα2a) (from UniProt P01563 24-188) (ligand)” had an EC50, ISRE-luc2P/HEK293 luciferase reporter, +MMP9 in assay [1] of 0.02 nM.
Substance “c9G4-PVGLIG-hIL-15 cleaved by MMP-9 (released hIL-15) (from UniProt P40933 49-162) (ligand)” registered an EC50 of IL-15-induced IL-2Rβ/IL-2Rγ dimerisation (PathHunter U2OS chemiluminescence), +MMP-9 in assay [2] of 2.07 nM.
